Laboratory results from publication PMC3720604.

Target: endogenous CK2β (human (endogenous in HeLa)) (UniProt P67870)
Assay: co-IP; lysates (200 ug) of HeLa cells transfected with CK2α-HA or CK2α′-HA; consecutive rounds of immunoprecipitation with anti-CK2β sera and protein A sepharose, or mock control; supernatant and immunoprecipitate blotted for HA and CK2β; NP-40 alternative lysis buffer, 150 mM NaCl, 50 mM Tris pH 7.5

Sequence of CK2α′-HA (P19784 whole entry): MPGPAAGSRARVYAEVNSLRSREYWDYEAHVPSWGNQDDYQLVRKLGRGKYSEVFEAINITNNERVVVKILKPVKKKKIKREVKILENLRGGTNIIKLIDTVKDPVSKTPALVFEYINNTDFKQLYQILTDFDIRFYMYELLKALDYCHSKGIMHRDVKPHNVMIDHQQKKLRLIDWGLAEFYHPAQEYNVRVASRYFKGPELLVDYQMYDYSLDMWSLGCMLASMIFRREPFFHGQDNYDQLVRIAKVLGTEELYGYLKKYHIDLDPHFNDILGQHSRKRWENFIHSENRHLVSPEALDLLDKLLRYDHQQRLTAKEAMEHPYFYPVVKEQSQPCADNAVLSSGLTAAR
Sequence of UniProt P67870 (P67870 whole entry): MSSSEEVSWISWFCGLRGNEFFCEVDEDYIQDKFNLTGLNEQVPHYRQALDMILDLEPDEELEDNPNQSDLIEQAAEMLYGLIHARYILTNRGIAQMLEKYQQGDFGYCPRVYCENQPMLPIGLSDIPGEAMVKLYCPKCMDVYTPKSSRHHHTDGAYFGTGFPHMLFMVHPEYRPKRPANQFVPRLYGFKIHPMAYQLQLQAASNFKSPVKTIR

Q: How did the percent depleted from the lysate by CK2β immunoprecipitation turn out when “CK2α′-HA (from UniProt P19784 1-350) (enzyme)” was run?
A: > 90%
